According to patent US20040136959A1 (published 2004):

T1: human IL-13 receptor α2 chain (IL-13Rα2) (human, UniProt Q14627 27-380)
T1 construct: also called IL-13Rα2 chain; IL-13Rα chain
T1 sequence: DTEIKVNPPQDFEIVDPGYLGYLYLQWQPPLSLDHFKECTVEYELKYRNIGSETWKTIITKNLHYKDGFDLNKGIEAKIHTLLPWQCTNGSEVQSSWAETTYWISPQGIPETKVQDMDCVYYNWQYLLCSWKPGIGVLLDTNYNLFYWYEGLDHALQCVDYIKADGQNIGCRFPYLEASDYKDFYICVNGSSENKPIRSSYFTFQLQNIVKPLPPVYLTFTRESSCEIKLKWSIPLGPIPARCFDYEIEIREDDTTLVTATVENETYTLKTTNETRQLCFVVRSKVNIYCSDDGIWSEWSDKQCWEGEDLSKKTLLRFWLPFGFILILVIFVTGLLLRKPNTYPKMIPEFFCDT

B1: Recombinant human IL-4 (ligand, UniProt P05112 25-153, looked up)
chain: HKCDITLQEIIKTLNSLTEQKTLCTELTVTDIFAASKNTTEKETFCRAATVLRQFYSHHEKDTRCLGATAQQFHRHKQLIRFLKRLDRNLWGLAGLNSCPVKEANQSTLENFLERLKTIMREKYSKCSS
notes: also called unlabeled IL-4

Tests used:
[1] = biological target: human IL-13 receptor α2 chain (IL-13Rα2) (human) (UniProt Q14627); experiment: cell-based or functional assay
[2] = biological target: IL-13 receptor (IL-13R) as naturally present on the human cell lines (human); experiment: cell-based or functional assay
[3] = biological target: T1, human IL-13 receptor α2 chain (IL-13Rα2); experiment: 125I-IL-4 radioreceptor binding on SCCHN cells, vector control against IL-13Rα2 transfectants

Molecule	IC50, inhibition of protein synthesis, HN12 cells (IL-13Rα2-positive) [1] [µg/mL]	IC50, inhibition of protein synthesis, IL-13Rα2-positive SCCHN cell lines [1] [µg/mL]	IC50, inhibition of protein synthesis, KCCTC873 cells (IL-13Rα2-positive) [1] [µg/mL]	IC50, inhibition of protein synthesis, YCUM911 cells (IL-13Rα2-positive) [1] [µg/mL]	IC50, inhibition of protein synthesis, A253 cells [2] [µg/mL]	IC50, inhibition of protein synthesis, Hep-2 cells [2] [µg/mL]	IC50, inhibition of protein synthesis, KB cells [2] [µg/mL]	IC50, inhibition of protein synthesis, KCCL871 cells [2] [µg/mL]	IC50, inhibition of protein synthesis, KCCT871 cells [2] [µg/mL]	IC50, inhibition of protein synthesis, KCCT891 cells [2] [µg/mL]	IC50, inhibition of protein synthesis, KCCTCM901 cells [2] [µg/mL]	IC50, inhibition of protein synthesis, RPMI2650 cells [2] [µg/mL]	IC50, inhibition of protein synthesis, YCU891 cells [2] [µg/mL]	IC50, inhibition of protein synthesis, YCUM862 cells [2] [µg/mL]	IC50, inhibition of protein synthesis, YCUT891 cells [2] [µg/mL]	IC50, inhibition of protein synthesis, YCUT892 cells [2] [µg/mL]	IC50, inhibition of protein synthesis, other 14 SCCHN cell lines [2] [µg/mL]	binding result [3]
IL-13-PE38 (from UniProt P35225 25-146; P11439 278-389; P11439 406-638)	0.0075	< 0.01	0.008	0.004	0.155	0.2	0.1	0.185	0.275	> 1	0.11	> 1	0.5	> 1	> 1	> 1	0.1 to 1	–
B1	–	–	–	–	–	–	–	–	–	–	–	–	–	–	–	–	–	no binding
